From patent publication US20250353921A1 (ASTRIA THERAPEUTICS, published 2025)
Numbering of substitutions follows the chain as printed. Names may count otherwise. “And” between values parts separate entries of the source, which are not always exact repeats. Equal values may be shown once.

Key:
[1] = molecular target: T1, human OX40-CRD-avi-his (human, UniProt P43489 29-170, limits assumed); experiment: SPR Biacore T200, ratio of KD values
T1 construct: Only the CRD region of the ECD was used
T1 sequence: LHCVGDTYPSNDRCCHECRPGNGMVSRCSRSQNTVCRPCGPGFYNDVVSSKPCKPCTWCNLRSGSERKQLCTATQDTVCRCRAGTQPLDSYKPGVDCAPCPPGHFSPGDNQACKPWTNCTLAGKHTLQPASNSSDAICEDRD

[2] = molecular target: T2, cynomolgus OX40-ECD-his (cynomolgus); experiment: SPR Biacore T200, ratio of KD values
T2 construct: extracellular domain; also called Cyno OX40

[3] = molecular target: T3, human OX40 (TNFRSF4, CD134) on cells (human, UniProt P43489 29-277); experiment: flow cytometry on OX40-expressing HPB-ALL cells; cells pre-incubated with cold MAB1, washed, then stained with a single dose of the competitor GBR 830-AF647
T3 construct: also called OX40 on HPB-ALL cells; Jurkat-NFκB-OX40 cells
T3 sequence: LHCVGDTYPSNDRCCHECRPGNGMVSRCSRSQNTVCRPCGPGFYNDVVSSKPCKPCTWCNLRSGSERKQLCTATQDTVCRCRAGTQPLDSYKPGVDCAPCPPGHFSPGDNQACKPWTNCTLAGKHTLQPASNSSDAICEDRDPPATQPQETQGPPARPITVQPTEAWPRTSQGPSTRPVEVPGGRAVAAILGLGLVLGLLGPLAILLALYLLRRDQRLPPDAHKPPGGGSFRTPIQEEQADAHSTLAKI

[4] = molecular target: cynomolgus monkey (cy) OX40 protein (Example 5) (cynomolgus monkey); experiment: ELISA on coated OX40, ratio of EC50 values
[5] = molecular target: T4, rabbit (rb) OX40 protein (rabbit); experiment: ELISA on coated OX40, ratio of EC50 values
T4 construct: also called Rabbit OX40

[6] = molecular target: T5, rat (ra) OX40 protein (rat, UniProt P15725 20-210, limits assumed); experiment: SPR single cycle kinetics, MAB10 captured
T5 construct: also called Rat OX40
T5 sequence (looked up): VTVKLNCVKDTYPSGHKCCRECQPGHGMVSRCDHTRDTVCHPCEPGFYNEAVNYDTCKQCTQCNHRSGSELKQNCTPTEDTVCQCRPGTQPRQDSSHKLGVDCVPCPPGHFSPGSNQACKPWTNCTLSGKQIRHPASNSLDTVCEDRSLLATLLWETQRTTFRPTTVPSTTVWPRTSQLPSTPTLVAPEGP

[7] = molecular target: T6, mouse (mo) OX40 protein (mouse, UniProt P47741 20-211); experiment: SPR single cycle kinetics, MAB10 captured
T6 construct: also called Mouse OX40
T6 sequence (looked up): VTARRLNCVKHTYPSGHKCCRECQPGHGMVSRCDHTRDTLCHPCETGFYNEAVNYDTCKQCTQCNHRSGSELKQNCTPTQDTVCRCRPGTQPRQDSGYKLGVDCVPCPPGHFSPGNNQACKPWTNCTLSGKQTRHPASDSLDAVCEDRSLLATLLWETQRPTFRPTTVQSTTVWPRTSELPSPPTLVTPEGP

[8] = molecular target: T7, Human FcRn protein (Acro Biosystems, catalog NO: FCN-H52W7) (human, UniProt P55899 24-297; P61769 21-119); experiment: SPR Biacore 8K+, antibody immobilised, FcRn analyte, pH 6.0; pH 6.0; ratio of the KD of MAB1 to that of MAB10
T7 construct: also called huFcRn

[9] = molecular target: T8, Human CD16b (NA2 allotype), Sino Biological 11046-H08H (human, UniProt O75015 17-200); experiment: SPR Biacore 8K+, ratio of KD values
T8 construct: also called FcγRIIIb

[10] = molecular target: T9, Human CD16a (176F), Sino Biological 10389-H08H (human, UniProt P08637 17-208); experiment: SPR Biacore 8K+, ratio of KD values
T9 construct: also called FcγRIIIa176F

[11] = molecular target: T3, human OX40 (TNFRSF4, CD134) on cells; experiment: flow cytometry on OX40-expressing HPB-ALL cells; cells pre-incubated with cold GBR 830, washed, then stained with a single dose of the competitor MAB1-AF647
[12] = molecular target: T2, cynomolgus OX40-ECD-his; experiment: SPR, affinity for the extracellular domain (ECD) of cynomolgus monkey OX40
[13] = molecular target: T1, human OX40-CRD-avi-his; experiment: SPR, affinity for the extracellular domain (ECD) of human OX40; lower end of the range

T8 sequence (O75015 17-200 N65S limits assumed): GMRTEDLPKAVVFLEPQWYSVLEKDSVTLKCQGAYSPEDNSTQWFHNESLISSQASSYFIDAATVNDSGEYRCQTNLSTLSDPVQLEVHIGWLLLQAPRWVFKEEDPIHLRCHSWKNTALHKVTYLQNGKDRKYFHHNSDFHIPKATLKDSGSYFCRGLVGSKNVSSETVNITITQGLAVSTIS
T9 sequence (P08637 17-208 limits assumed): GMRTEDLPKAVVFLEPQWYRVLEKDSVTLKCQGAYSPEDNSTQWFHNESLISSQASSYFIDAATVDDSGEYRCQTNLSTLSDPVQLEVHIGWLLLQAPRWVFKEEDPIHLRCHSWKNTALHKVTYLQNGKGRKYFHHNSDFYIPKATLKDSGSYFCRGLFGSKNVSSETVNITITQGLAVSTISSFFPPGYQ
T7 sequence (P55899 24-297 limits assumed, chain 1 of 2): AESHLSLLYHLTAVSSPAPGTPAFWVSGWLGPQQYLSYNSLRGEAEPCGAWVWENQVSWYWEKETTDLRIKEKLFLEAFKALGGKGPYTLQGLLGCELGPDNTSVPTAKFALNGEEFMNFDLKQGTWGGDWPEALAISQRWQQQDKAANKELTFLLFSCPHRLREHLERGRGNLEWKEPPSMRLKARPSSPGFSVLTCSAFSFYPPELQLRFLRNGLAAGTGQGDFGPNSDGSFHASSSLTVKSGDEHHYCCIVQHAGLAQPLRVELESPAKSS
T7 sequence (P61769 21-119 limits assumed, chain 2 of 2): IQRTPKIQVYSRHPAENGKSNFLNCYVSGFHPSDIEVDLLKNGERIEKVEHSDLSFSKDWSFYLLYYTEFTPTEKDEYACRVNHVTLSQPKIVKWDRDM

B1: MAB1 IgG1 (antibody)
heavy: not shown
light: EIVLTQSPATLSLSPGERATLSCRASSSVSYMHWYQQKPGQAPRPWIYATSNRATGIPARFSGSGSGTDYTLTISSLEPEDFAVYYCQQFGAWPWTFGQGTKVEIKRTVAAPSVFIFPPSDEQLKSGTASVVCLLNNFYPREAKVQWKVDNALQSGNSQESVTEQDSKDSTYSLSSTLTLSKADYEKHKVYACEVTHQGLSSPVTKSFNRGEC
notes: Human IgG1, kappa
[1]
  fold increase in affinity (KD GBR 830 / KD MAB1): 13.4 fold
[2]
  fold increase in affinity (KD GBR 830 / KD MAB1): 5.5 fold
[3]
  IC50 (read off the curve): ~0.02 µg/mL

B2: MAB10 (antibody, human IgG1, kappa)
heavy: QVTLKESGPALVKPTQTLTLTCSFSGFSLSTSGMGVGWIRQPPGKALEWIAHIWWDDDKYYNTALKTRLTISKDTSKNQVVLTMTNMDPVDTATYYCARIDWDGFAYWGQGTLVTVSSASTKGPSVFPLAPSSKSTSGGTAALGCLVKDYFPEPVTVSWNSGALTSGVHTFPAVLQSSGLYSLSSVVTVPSSSLGTQTYICNVNHKPSNTKVDKKVEPKSCDKTHTCPPCPAPELLGGPSVFLFPPKPKDTLYITREPEVTCVVVDVSHEDPEVKFNWYVDGVEVHNAKTKPREEQYNSTYRVVSVLTVLHQDWLNGKEYKCKVSNKALPAPIEKTISKAKGQPREPQVYTLPPSRDELTKNQVSLTCLVKGFYPSDIAVEWESNGQPENNYKTTPPVLDSDGSFFLYSKLTVDKSRWQQGNVFSCSVMHEALHNHYTQKSLSLSPGK
light: B1 light
notes: MAB1 with M252Y, S254T and T256E (EU numbering) in the IgG1 Fc; also called MAB1 Heavy Chain + YTE
[4]
  fold EC50 against human OX40: 4 fold
[5]
  fold EC50 against human OX40: 8 fold
[6]
  binding result: no binding
[7]
  binding result: no binding
[8]
  fold increase of the binding constant against MAB1: 8.8 fold
[9]
  fold-change of KD relative to MAB1: 4.3 fold
[10]
  fold-change of KD relative to MAB1: 3 fold

B3: GBR 830 (telazorlimab) (antibody, human IgG1, kappa)
heavy: not shown
light: B1 light with F90W, G91S, A92S, W93N
notes: IgG1; also called Antibody 830; ISB830
[11]
  IC50 (read off the curve): ~0.2 µg/mL
[12]
  Kd: 5000 nM and 3000 nM
[13]
  Kd: 80 nM
